Earlier results in PMC10609526.

Target: DmsA Tat signal peptide (Escherichia coli) (UniProt P18775)
Chain of UniProt P18775 (P18775 1-45): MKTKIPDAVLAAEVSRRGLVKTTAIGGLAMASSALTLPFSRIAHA

DmsD (from UniProt P69853)
Kd: 220 nM
